# In publication PMC13534702, “Polo/PLK1 phosphorylation relieves Centrosomin/Cnn autoinhibition to promote centrosome scaffold assembly” (The EMBO Journal, 2026):
# T1: Full-length SPD-5-GFP (C. elegans), P91349
# T1 chain: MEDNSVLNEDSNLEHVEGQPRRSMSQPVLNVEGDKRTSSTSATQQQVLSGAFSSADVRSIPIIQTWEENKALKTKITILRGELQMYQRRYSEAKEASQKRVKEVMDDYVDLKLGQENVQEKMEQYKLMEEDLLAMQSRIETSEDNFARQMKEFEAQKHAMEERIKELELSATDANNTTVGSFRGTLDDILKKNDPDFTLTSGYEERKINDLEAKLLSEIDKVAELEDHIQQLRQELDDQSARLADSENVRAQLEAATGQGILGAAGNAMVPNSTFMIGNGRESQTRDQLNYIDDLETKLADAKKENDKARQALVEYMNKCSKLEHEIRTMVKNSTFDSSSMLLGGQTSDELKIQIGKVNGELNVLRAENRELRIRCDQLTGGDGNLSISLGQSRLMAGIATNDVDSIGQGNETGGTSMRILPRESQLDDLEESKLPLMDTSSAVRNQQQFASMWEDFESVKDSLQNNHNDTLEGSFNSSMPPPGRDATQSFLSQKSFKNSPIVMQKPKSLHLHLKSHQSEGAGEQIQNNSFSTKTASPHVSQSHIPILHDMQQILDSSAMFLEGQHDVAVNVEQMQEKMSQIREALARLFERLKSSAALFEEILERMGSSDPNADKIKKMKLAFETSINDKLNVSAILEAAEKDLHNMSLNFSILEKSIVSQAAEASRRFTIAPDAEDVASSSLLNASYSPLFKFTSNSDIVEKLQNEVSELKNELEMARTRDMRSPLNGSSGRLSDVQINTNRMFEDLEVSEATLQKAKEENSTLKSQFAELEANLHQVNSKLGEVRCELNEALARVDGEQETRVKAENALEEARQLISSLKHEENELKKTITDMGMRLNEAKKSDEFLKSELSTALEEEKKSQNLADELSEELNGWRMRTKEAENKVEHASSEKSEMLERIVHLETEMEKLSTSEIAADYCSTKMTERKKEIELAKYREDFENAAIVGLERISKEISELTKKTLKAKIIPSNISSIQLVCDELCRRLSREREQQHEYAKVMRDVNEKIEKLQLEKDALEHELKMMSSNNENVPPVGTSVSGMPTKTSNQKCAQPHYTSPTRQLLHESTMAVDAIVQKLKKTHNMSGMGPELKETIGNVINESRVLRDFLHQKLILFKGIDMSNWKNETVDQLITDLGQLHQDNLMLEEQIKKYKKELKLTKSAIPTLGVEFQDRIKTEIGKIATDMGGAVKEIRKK
# T2: Cnn_(490-608), tag cleaved (SEC-MALS) (Drosophila melanogaster, UniProt P54623-2 490-608)
# T2 construct: also called PReMΔH1ΔNTH2; source: E. coli BL21 (DE3), purified, tag cleaved for SEC-MALS; not shown: His6, N-terminal, cleaved; MBP, N-terminal, cleaved
# T2 sequence (looked up): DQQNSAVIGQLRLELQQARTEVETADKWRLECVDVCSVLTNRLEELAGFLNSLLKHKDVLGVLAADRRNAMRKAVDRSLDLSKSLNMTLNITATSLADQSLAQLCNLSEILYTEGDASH
# T3: MBP-Cnn_(490-608) 2E (S567E/S571E) (Drosophila melanogaster, UniProt P54623-2 490-608, S567E | S571E)
# T3 construct: also called 2E mutant; source: E. coli BL21 (DE3), purified; not shown: MBP, N-terminal, kept
# T3 sequence (looked up): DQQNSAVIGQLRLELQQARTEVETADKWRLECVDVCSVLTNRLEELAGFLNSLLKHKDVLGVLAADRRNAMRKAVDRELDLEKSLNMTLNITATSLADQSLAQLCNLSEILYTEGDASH
# B1: MBP-Cnn_(490-608) WT (domain or fragment, Drosophila melanogaster, UniProt P54623-2 490-608, looked up)
# chain: DQQNSAVIGQLRLELQQARTEVETADKWRLECVDVCSVLTNRLEELAGFLNSLLKHKDVLGVLAADRRNAMRKAVDRSLDLSKSLNMTLNITATSLADQSLAQLCNLSEILYTEGDASH
# notes: I take the same protein to have been used there; source: E. coli BL21 (DE3), purified; not shown: MBP, N-terminal, kept
# Columns and labels:
# [1] = target: T1, Full-length SPD-5-GFP (C. elegans), …; assay: mass photometry; full-length GFP fusions in solution; 20 mM HEPES, 150 mM KCl, pH 7.25; low nanomolar concentration (10 nM final by the procedure of the standards); conditions: remark: other sources report otherwise
# [2] = target: the molecule itself; assay: SEC; MBP-Cnn 490-608 variants run alone; absorbance at 280 nm; size judged from the elution volume
# [3] = target: T2, Cnn_(490-608), tag cleaved (SEC-MALS); assay: SEC-MALS; Cnn 490-608 mixed with CM2; Superdex 75 or Superdex 200 10/300 Increase; 20 mM Tris pH 7.5, 150 mM NaCl, 0.5 mM TCEP; 0.5 mL/min; fraction checked on an SDS gel; conditions: both partners purified
# [4] = target: B1; assay: SEC; PReM domain (Cnn 490-608) variants mixed with CM2; fractions checked on SDS gels; conditions: both partners purified
# [5] = target: T3, MBP-Cnn_(490-608) 2E (S567E/S571E); assay: as above; conditions: both partners purified
# [6] = target: the molecule itself; assay: mass photometry; full-length GFP fusions in solution; 20 mM HEPES, 150 mM KCl, pH 7.25; low nanomolar concentration (10 nM final by the procedure of the standards)
binder,measurement,setting,value
"Full-length SPD-5-GFP, P91349 1-1198 (natural protein) MEDNSVLNEDSNLEHVEGQPRRSMSQPVLNVEGDKRTSSTSATQQQVLSGAFSSADVRSIPIIQTWEENKALKTKITILRGELQMYQRRYSEAKEASQKRVKEVMDDYVDLKLGQENVQEKMEQYKLMEEDLLAMQSRIETSEDNFARQMKEFEAQKHAMEERIKELELSATDANNTTVGSFRGTLDDILKKNDPDFTLTSGYEERKINDLEAKLLSEIDKVAELEDHIQQLRQELDDQSARLADSENVRAQLEAATGQGILGAAGNAMVPNSTFMIGNGRESQTRDQLNYIDDLETKLADAKKENDKARQALVEYMNKCSKLEHEIRTMVKNSTFDSSSMLLGGQTSDELKIQIGKVNGELNVLRAENRELRIRCDQLTGGDGNLSISLGQSRLMAGIATNDVDSIGQGNETGGTSMRILPRESQLDDLEESKLPLMDTSSAVRNQQQFASMWEDFESVKDSLQNNHNDTLEGSFNSSMPPPGRDATQSFLSQKSFKNSPIVMQKPKSLHLHLKSHQSEGAGEQIQNNSFSTKTASPHVSQSHIPILHDMQQILDSSAMFLEGQHDVAVNVEQMQEKMSQIREALARLFERLKSSAALFEEILERMGSSDPNADKIKKMKLAFETSINDKLNVSAILEAAEKDLHNMSLNFSILEKSIVSQAAEASRRFTIAPDAEDVASSSLLNASYSPLFKFTSNSDIVEKLQNEVSELKNELEMARTRDMRSPLNGSSGRLSDVQINTNRMFEDLEVSEATLQKAKEENSTLKSQFAELEANLHQVNSKLGEVRCELNEALARVDGEQETRVKAENALEEARQLISSLKHEENELKKTITDMGMRLNEAKKSDEFLKSELSTALEEEKKSQNLADELSEELNGWRMRTKEAENKVEHASSEKSEMLERIVHLETEMEKLSTSEIAADYCSTKMTERKKEIELAKYREDFENAAIVGLERISKEISELTKKTLKAKIIPSNISSIQLVCDELCRRLSREREQQHEYAKVMRDVNEKIEKLQLEKDALEHELKMMSSNNENVPPVGTSVSGMPTKTSNQKCAQPHYTSPTRQLLHESTMAVDAIVQKLKKTHNMSGMGPELKETIGNVINESRVLRDFLHQKLILFKGIDMSNWKNETVDQLITDLGQLHQDNLMLEEQIKKYKKELKLTKSAIPTLGVEFQDRIKTEIGKIATDMGGAVKEIRKK",stoichiometry N,[1],2
B1,stoichiometry N,[2],2
"Drosophila Cnn CM2 domain (domain or fragment, Drosophila melanogaster, UniProt P54623-2 1082-1148, looked up, the EM methods print 1077-1148; The methods say that the N-terminal tag was cleaved for SEC-MALS, crystallisation or further use; also called DmCM2; fly CM2; source: E. coli BL21 (DE3), purified) HDCAKVDLENAELRRKLIRTKRAFEDTYEKLRMANKAKAQVEKDIKNQILKTHNVLRNVRSNMENEL",binding result,[3],binds
same,binding result,[4],binds
same,binding result,[5],binds
"MBP-Cnn_(490-608) 2A (S567A/S571A) (domain or fragment, Drosophila melanogaster, UniProt P54623-2 490-608, looked up, also called 2A-mutant PReM; source: E. coli BL21 (DE3), purified; not shown: MBP, N-terminal, kept) DQQNSAVIGQLRLELQQARTEVETADKWRLECVDVCSVLTNRLEELAGFLNSLLKHKDVLGVLAADRRNAMRKAVDRALDLAKSLNMTLNITATSLADQSLAQLCNLSEILYTEGDASH",stoichiometry N,[2],2
"Full-length Cnn-GFP (natural protein, Drosophila melanogaster, UniProt P54623-2 1-1148, looked up, Centrosomin (Cnn), Drosophila melanogaster, full length, synthesised gene; also called Cnn-WT; not shown: MBP, N-terminal, cleaved; mGFP, C-terminal, kept; His10, C-terminal, cleaved) MDQSKQVLRDYCGDGNGTCASSLKEITLIETVTSFLEENGAAEIDRRVLRKLAEALSKSIDDTSPGALQDVTMENSYASFDVPRPPGGGNSPLPSQGRSVRELEEQMSALRKENFNLKLRIYFLEEGQPGARADSSTESLSKQLIDAKIEIATLRKTVDVKMELLKDAARAISHHEELQRKADIDSQAIIDELQEQIHAYQMAESGGQPVENIAKTRKMLRLESEVQRLEEELVNIEARNVAARNELEFMLAERLESLTACEGKIQELAIKNSELVERLEKETASAESSNANRDLGAQLADKICELQEAQEKLKERERIHEQACRTIQKLMQKLSSQEKEIKKLNQENEQSANKENDCAKTVISPSSSGRSMSDNEASSQEMSTNLRVRYELKINEQEEKIKQLQTEVKKKTANLQNLVNKELWEKNREVERLTKLLANQQKTLPQISEESAGEADLQQSFTEAEYMRALERNKLLQRKVDVLFQRLADDQQNSAVIGQLRLELQQARTEVETADKWRLECVDVCSVLTNRLEELAGFLNSLLKHKDVLGVLAADRRNAMRKAVDRSLDLSKSLNMTLNITATSLADQSLAQLCNLSEILYTEGDASHKTFNSHEELHAATSMAPTVENLKAENKALKKELEKRRSSEGQRKERRSLPLPSQQFDNQSESEAWSEPDRKVSLARIGLDETSNSLAAPEQAISESESEGRTCATRQDRNRNSERIAQLEEQIAQKDERMLNVQCQMVELDNRYKQEQLRCLDITQQLEQLRAINEALTADLHAIGSHEEERMVELQRQLELKNQQIDQLKLAHSTLTADSQITEMELQALQQQMQEIEQLHADSVETLQSQLQKLKLDAVQQLEEHERLHREALERDWVALTTYQEQAQQLLELQRSLDYHQENEKELKQTLVENELATRALKKQLDESTLQASKAVMERTKAYNDKLQLEKRSEELRLQLEALKEEHQKLLQKRSNSSDVSQSGYTSEEVAVPMGPPSGQATTCKQAAAAVLGQRVNTSSPDLGIESDAGRISSVEVSNAQRAMLKTVEMKTEGSASPKAKSEESTSPDSKSNVATGAATVHDCAKVDLENAELRRKLIRTKRAFEDTYEKLRMANKAKAQVEKDIKNQILKTHNVLRNVRSNMENEL",stoichiometry N,[6],2
